Data reported in US20080038257A1 (AVEO PHARMACEUTICALS, published 2008).
Residue numbers refer to the chain shown, from its start. Read-outs that look alike come from different tables or passages of the source.

B1: anti-hHGF monoclonal antibody 3D11 (antibody, mouse IgG1, kappa, V domains shown)
VH: QVQLKESGPGLVAPSQSLSITCTVSGFSLTSYSLHWVRQPPGKGLEWLGVIWAGGNTNYNSSLMSRLTIRKDNSKSQVFLKMNSLQTDDTAMYYCARERFAYWGQGTLVTVSA
VL: QIVLTQSPAIMSAYPGEKVTMTCSASSSVSYMHWYQQKSGTSPKRWIYDTSKLASGVPARFSGSGSGTSYSLTISSMEAEDAATYYCQQWSSNPLTFGAGTKLELKR
B2: HE2B8-1 (LR2B8HC + IgG1 G1m(3) allele 1 plus LR2B8LC + Kappa Km(3) allele 1) (antibody, V domains shown)
VH: QVQLVQPGAEVVKPGTSVKLSCKASGYTFTTYWMHWVNQAPGQGLEWIGEINPTNGHTNYNEKFKGKATLTVDKSTSTAYMELSSLRSEDTAVYYCARNYVGSIFDYWGQGTLLTVSS
VL: DIVMTQSPDSMAMSVGERVTLNCKASENVVSYVSWYQQKPGQSPKLLIYGASNRNTGVPDRFSGSGSATDFTLTISSVQAEDVADYHCGQSYNYPYTFGQGTKLEIKR
B3: HE2B8-3 (LRMR2B8HC + IgG1 G1m(3) allele 1 plus LR2B8LC + Kappa Km(3) allele 1) (antibody, V domains shown)
VH: B2 VH with V12K, N38R, E62Q, K65Q, K67R
VL: B2 VL
B4: HE2B8-2 (LR2B8HC + IgG1 G1m(3) allele 1 plus LRMR2B8LC + Kappa Km(3) allele 1) (antibody, V domains shown)
VH: B2 VH
VL: B2 VL with M11L, V15L, N55E, T56S
B5: HE2B8-4 (LRMR2B8HC + IgG1 G1m(3) allele 1 plus LRMR2B8LC + Kappa Km(3) allele 1) (antibody, V domains shown)
VH: B2 VH with V12K, N38R, E62Q, K65Q, K67R
VL: B2 VL with M11L, V15L, N55E, T56S
B6: anti-hHGF monoclonal antibody 3B6 (antibody, mouse IgG1, kappa, V domains shown)
VH: QVQLQQSGAELVRPGSSVKISCKASGYVFSSYWMNWVKQRPGQGLEWIGQIYPGDGDSNYNGNFKGKATLTADKSSSTAYMQLSSLTSEDSAVYFCASQLGLRENYFDYWGQGTTLTVSS
VL: DIKMTQSPSSMYASLGERVTITCKASQDIKSYLSWFQQKPGKSPKTLIYRVNRLVDGVPSRFSGSGSGQDSSLTITSLENEDMGIYYCLQYDEFPFTFGGGTKLEIKR
B7: anti-hHGF monoclonal antibody 1A3 (antibody, mouse IgG1, kappa, V domains shown)
VH: EVQLVESGGGLVQPGGSLKLSCAASEFTFSNYYMSWVRQTPEKRLQWVAYISPGGGSSYYPASVKGRFTISRDNAKNTLYLQMSSLKSEDTAMYYCARQGDGYYGDYAMDYWGQGTSVTVSS
VL: DIQMTQSPASLSVSVGETVTITCRASENIYSNLAWYQQKQGKSPQLLVYAATNLADGVPSRFSGSGSGTQFSLKINSLQSEDFGTYYCQHFWGTPYTFGGGTKLEIKR
B8: anti-hHGF monoclonal antibody 1F3 (antibody, mouse IgG1, kappa, V domains shown)
VH: B7 VH with P14S, E26G, Y33F, Q46E, P53S, S58T, A62D, A97V
VL: B7 VL with A50D, N53H, A55P, T85S, K103R
B9: anti-hHGF monoclonal antibody 1D3 (antibody, mouse IgG1, kappa, V domains shown)
VH: B7 VH with E26G, N31D, Q46E, P53S, S58T, A62D, M93I, A97V, T119I
VL: B7 VL with A25T, V48I, K74R, T85R
B10: anti-hHGF monoclonal antibody 3A12 (antibody, mouse IgG1, kappa, V domains shown)
VH: B7 VH with L20I, E26G, Y33F, Q46E, P53S, S58T, A62D, S84N, A97V
VL: B7 VL with S31I, Y49H, N53K, F71Y, T85S
B11: anti-hHGF monoclonal antibody 2B8 (antibody, mouse IgG1, kappa)
heavy: QVQLQQPGAELVKPGTSVKLSCKASGYTFTTYWMHWVNQRPGQGLEWIGEINPTNGHTNYNEKFKSKATLTVDKSSSTAYMQLSSLTSEDSAVYYCARNYVGSIFDYWGQGTTLTVSSAKTTPPSVYPLAPGSAAQTNSMVTLGCLVKGYFPEPVTVTWNSGSLSSGVHTFPAVLQSDLYTLSSSVTVPSSTWPSETVTCNVAHPASSTKVDKKIVPRDCGCKPCICTVPEVSSVFIFPPKPKDVLTITLTPKVTCVVVDISKDDPEVQFSWFVDDVEVHTAQTQPREEQFNSTFRSVSELPIMHQDWLNGKEFKCRVNSAAFPAPIEKTISKTKGRPKAPQVYTIPPPKEQMAKDKVSLTCMITDFFPEDITVEWQWNGQPAENYKNTQPIMDTDGSYFVYSKLNVQKSNWEAGNTFTCSVLHEGLHNHHTEKSLSHSPGK
light: NIVMTQSPKSMSMSVGERVTLSCKASENVVSYVSWYQQKPAQSPKLLIYGASNRNTGVPDRFTGSGSATDFTLTISSVRAEDLADYHCGQSYNYPYTFGGGTRLEIKRADAAPTVSIFPPSSEQLTSGGASVVCFLNNFYPKDINVKWKIDGSERQNGVLNSWTDQDSKDSTYSMSSTLTLTKDEYERHNSYTCEATHKTSTSPIVKSFNRNEC
B12: anti-hHGF monoclonal antibody 2F8 (antibody, mouse IgG1, kappa, V domains shown)
VH: QVQLKQSGAELVRPGTSVKMSCKASGYTFTTYYIHWVNQRPGQGLEWIGKIGPGSGSTYYNEMFKDKATLTVDTSSSTAYMQLSSLTSDDSAVYFCARRGLGRGFDYWGQGTTLTVSS
VL: DIVLTQSPASLAVSLGQRATISCKASQSVDYDGNSYINWYQQKPGQPPKVLIYVASNLESGIPARFSGSGSGTDFTLNIHPVEEEDAATYYCQQSIEDPPTFGAGTKLELKR
B13: sh2B8-9 (G1m(3)) = hu2B8 Hv5-51.1 + IgG1 constant G1m(3) allele 2 plus hu2B8 Kv1-39.1 + Kappa Km(3) allele 2 (antibody)
heavy: not shown
light: DIQMTQSPSSLSASVGDRVTITCKASENVVSYVSWYQQKPGKAPKLLIYGASNRNTGVPSRFSGSGSGTDFTLTISSLQPEDFATYYCGQSYNYPYTFGQGTKLEIKRTVAAPSVFIFPPSDEQLKSGTASVVCLLNNFYPREAKVQWKVDNALQSGNSQESVTEQDSKDSTYSLSSTLTLSKADYEKHKVYACEVTHQGLSSPVTKSFNRGEC

Tests used:
Assay in all cases: cell-based or functional assay
[1] = target: T1, recombinant human HGF (R&D Systems, Catalog No. 294-HGN-025) (human, UniProt P14210 32-728)
[2] = target: T1, recombinant human HGF (R&D Systems, …); remark: listed apart in the source
[3] = target: T1, recombinant human HGF (R&D Systems, …); remark: listed apart in the source
[4] = target: T1, recombinant human HGF (R&D Systems, …); remark: listed apart in the source

T1 sequence (P14210 32-728 limits assumed): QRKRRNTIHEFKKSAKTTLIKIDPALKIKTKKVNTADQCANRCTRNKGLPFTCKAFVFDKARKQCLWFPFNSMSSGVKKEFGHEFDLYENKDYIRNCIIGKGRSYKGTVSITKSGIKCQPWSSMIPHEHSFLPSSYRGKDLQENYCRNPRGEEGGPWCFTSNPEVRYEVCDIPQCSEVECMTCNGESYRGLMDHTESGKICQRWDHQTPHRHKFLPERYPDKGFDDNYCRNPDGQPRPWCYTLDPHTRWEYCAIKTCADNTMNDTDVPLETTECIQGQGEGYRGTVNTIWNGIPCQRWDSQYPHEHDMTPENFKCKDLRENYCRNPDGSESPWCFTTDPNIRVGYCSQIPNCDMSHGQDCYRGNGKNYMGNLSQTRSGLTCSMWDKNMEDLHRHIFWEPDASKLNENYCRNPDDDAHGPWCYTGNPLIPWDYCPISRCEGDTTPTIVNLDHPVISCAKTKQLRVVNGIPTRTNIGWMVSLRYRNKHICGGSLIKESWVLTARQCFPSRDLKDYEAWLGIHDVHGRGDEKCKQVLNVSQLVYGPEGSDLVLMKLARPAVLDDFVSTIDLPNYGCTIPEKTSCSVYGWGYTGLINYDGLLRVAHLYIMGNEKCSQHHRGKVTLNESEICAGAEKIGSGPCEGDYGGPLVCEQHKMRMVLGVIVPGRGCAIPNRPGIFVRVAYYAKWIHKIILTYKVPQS

Row | Binder | IC50 (nM), HGF stimulated BrdU incorporation in 4MBr-5 cells [1] [nM] | EC50 in nM, HGF-stimulated c-Met phosphorylation in PC-3 cells, Average of Two Trials [2] [nM] | IC50 (nM), HGF stimulated BrdU incorporation in 4MBr-5 cells [3] [nM] | HGF-stimulated c-Met phosphorylation in PC-3 cells (assay of Example 9), Average of Two Trials [4] [nM]
1 | B1 | 51.1 | 2.28 |  | 
2 | B2 |  |  | 0.47 | 0.8
3 | B3 |  |  | 0.55 | 0.79
4 | B4 |  |  | 0.66 | 0.88
5 | B5 |  |  | 0.58 | 0.75
6 | B6 | 36.1 | 1.01 |  | 
7 | B7 | 4.69 | 0.684 |  | 
8 | B8 | 1.94 | 1.19 |  | 
9 | B9 | 4.99 | 0.984 |  | 
10 | B10 | 30.3 | 2 |  | 
11 | B11 | 1.41 | 0.287 | 0.86 | 0.91
12 | B12 | 19.2 | 1.39 |  | 
13 | B13 |  |  | 0.52 | 0.93
